Results on four molecules are retold here after publication PMC4812828 (Nature structural & molecular biology, 2016).

Test in all cases: cryo-EM structure
One experiment has as its target T1, Mcm4 (S. cerevisiae, UniProt P30665 1-933).
T1 sequence: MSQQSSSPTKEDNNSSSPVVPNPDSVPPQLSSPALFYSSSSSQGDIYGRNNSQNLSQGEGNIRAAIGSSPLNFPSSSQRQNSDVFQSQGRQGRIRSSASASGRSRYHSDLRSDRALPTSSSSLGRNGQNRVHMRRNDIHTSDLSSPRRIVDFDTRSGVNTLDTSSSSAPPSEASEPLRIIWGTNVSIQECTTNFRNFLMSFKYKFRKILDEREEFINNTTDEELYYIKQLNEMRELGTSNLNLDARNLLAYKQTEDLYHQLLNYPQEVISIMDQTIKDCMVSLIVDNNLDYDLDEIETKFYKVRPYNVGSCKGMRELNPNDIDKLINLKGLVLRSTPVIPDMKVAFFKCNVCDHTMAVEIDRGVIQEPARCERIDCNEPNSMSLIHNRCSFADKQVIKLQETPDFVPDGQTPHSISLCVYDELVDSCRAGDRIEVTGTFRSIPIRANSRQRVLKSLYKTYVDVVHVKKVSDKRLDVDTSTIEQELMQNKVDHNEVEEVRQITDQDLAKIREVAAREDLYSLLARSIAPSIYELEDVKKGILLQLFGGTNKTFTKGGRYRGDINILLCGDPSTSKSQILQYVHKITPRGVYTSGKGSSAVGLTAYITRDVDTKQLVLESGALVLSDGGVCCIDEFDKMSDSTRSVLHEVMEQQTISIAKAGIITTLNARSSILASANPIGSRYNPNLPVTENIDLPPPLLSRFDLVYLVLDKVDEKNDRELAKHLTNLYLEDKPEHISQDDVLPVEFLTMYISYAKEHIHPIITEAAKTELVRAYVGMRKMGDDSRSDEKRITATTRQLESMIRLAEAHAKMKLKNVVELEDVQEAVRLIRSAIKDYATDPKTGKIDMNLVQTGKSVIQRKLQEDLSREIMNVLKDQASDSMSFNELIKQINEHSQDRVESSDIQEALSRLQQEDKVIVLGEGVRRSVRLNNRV

The next experiment concerns the target Mcm3 (S. cerevisiae, UniProt P24279 1-971).
The target of a further experiment is T2, GINS (S. cerevisiae, UniProt Q03406;Q12488;P40359;Q12146).
T2 sequence 1: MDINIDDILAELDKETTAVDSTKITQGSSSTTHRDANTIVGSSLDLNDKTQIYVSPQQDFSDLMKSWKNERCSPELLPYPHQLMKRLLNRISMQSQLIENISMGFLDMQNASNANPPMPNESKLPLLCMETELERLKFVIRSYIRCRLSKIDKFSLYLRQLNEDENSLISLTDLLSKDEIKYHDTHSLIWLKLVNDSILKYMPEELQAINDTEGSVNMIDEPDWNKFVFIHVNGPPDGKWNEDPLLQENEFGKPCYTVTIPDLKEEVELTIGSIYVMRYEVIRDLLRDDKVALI
T2 sequence 2: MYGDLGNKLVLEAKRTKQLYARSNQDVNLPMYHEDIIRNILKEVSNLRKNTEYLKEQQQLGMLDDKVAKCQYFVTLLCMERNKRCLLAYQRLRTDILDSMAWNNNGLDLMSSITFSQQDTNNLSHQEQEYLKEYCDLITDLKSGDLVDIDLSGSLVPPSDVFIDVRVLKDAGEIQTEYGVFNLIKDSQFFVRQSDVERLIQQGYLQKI
T2 sequence 3: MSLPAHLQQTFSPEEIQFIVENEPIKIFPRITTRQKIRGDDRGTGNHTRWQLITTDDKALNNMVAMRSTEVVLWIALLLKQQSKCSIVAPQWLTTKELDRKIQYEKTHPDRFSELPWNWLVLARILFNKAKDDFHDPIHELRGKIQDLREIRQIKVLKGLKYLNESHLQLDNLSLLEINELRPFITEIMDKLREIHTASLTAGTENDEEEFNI
T2 sequence 4: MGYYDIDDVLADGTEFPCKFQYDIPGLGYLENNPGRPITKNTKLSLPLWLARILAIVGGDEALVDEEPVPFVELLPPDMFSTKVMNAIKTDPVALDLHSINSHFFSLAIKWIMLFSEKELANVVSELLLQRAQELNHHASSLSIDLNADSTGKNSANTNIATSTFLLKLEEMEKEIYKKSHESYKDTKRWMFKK

A further experiment deals with Mcm6 (S. cerevisiae, UniProt P53091 1-1017).
A further experiment deals with T3, Cdc45 (S. cerevisiae, UniProt Q08032 1-650).
T3 sequence: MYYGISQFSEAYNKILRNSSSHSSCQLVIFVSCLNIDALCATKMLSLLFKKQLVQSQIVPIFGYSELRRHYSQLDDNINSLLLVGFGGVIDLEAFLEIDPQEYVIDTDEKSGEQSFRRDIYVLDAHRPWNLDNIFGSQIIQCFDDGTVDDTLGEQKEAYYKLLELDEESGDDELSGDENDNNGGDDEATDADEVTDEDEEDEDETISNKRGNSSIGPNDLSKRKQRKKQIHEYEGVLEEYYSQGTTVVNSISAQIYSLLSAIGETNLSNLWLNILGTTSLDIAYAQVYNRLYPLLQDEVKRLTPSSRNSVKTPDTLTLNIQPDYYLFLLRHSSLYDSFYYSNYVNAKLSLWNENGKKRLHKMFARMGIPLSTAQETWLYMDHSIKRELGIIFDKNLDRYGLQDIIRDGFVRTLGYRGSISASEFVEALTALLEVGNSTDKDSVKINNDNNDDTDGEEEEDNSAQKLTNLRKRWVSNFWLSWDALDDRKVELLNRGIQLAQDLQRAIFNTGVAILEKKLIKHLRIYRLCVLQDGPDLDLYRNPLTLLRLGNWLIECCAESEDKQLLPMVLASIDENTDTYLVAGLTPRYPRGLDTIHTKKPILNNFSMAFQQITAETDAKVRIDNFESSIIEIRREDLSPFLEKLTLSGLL

Chain of Mcm6 (P53091 whole entry): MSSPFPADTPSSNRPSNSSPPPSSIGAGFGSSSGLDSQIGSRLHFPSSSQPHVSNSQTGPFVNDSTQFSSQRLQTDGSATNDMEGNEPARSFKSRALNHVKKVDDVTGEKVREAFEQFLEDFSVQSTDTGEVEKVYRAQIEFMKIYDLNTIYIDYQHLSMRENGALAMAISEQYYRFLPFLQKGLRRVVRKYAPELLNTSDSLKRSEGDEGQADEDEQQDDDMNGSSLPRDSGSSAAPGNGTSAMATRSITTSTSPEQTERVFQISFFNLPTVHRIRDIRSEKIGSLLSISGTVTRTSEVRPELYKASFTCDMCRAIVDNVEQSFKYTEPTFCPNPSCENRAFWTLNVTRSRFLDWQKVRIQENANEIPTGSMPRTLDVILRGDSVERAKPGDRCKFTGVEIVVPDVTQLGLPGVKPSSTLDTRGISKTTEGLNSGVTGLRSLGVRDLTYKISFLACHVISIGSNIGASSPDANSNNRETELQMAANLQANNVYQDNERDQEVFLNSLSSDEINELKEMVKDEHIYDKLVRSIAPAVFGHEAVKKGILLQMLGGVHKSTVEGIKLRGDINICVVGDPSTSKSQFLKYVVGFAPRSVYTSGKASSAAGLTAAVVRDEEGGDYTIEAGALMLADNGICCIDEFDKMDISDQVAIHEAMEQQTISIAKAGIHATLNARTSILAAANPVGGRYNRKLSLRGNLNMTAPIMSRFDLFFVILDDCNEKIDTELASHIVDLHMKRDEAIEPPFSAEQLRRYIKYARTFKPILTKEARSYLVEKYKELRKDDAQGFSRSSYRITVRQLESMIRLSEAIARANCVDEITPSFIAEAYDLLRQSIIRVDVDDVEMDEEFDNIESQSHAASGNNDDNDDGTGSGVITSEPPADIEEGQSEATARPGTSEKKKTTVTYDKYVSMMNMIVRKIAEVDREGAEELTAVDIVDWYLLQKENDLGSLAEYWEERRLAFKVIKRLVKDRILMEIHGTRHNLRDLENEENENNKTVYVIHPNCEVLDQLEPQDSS
Chain of Mcm3 (P24279 whole entry): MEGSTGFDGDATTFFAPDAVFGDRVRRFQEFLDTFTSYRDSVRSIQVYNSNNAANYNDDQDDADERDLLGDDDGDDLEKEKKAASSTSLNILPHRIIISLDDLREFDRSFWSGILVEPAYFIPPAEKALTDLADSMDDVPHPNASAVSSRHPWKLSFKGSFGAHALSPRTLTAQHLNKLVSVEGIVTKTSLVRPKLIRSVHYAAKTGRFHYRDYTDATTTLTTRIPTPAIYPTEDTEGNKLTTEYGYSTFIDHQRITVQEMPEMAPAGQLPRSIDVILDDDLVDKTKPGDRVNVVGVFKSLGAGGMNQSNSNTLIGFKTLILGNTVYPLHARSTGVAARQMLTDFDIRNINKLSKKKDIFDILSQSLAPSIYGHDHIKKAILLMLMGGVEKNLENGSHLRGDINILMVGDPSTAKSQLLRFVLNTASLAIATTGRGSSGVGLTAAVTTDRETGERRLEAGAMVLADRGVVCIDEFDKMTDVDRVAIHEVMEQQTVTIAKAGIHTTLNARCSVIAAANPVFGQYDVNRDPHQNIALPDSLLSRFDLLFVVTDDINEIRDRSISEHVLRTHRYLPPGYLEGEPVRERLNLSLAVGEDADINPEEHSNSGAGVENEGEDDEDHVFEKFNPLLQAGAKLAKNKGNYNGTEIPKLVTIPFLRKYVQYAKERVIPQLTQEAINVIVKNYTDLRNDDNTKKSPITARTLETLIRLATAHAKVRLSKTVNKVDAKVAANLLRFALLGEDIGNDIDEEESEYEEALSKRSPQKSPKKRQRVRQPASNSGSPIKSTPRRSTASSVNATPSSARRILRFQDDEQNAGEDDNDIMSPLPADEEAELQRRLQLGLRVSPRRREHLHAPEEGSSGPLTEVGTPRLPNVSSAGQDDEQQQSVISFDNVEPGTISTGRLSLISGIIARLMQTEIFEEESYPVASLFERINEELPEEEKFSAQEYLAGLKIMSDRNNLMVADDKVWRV

B1: Mcm7 (natural protein)
chain: MSAALPSIQLPVDYNNLFNEITDFLVTFKQDTLSSDATRNENEDENLDAENIEQHLLEKGPKYMAMLQKVANRELNSVIIDLDDILQYQNEKFLQGTQADDLVSAIQQNANHFTELFCRAIDNNMPLPTKEIDYKDDVLDVILNQRRLRNERMLSDRTNEIRSENLMDTTMDPPSSMNDALREVVEDETELFPPNLTRRYFLYFKPLSQNCARRYRKKAISSKPLSVRQIKGDFLGQLITVRGIITRVSDVKPAVEVIAYTCDQCGYEVFQEVNSRTFTPLSECTSEECSQNQTKGQLFMSTRASKFSAFQECKIQELSQQVPVGHIPRSLNIHVNGTLVRSLSPGDIVDVTGIFLPAPYTGFKALKAGLLTETYLEAQFVRQHKKKFASFSLTSDVEERVMELITSGDVYNRLAKSIAPEIYGNLDVKKALLLLLVGGVDKRVGDGMKIRGDINVCLMGDPGVAKSQLLKAICKISPRGVYTTGKGSSGVGLTAAVMKDPVTDEMILEGGALVLADNGICCIDEFDKMDESDRTAIHEVMEQQTISISKAGINTTLNARTSILAAANPLYGRYNPRLSPLDNINLPAALLSRFDILFLMLDIPSRDDDEKLAEHVTYVHMHNKQPDLDFTPVEPSKMREYIAYAKTKRPVMSEAVNDYVVQAYIRLRQDSKREMDSKFSFGQATPRTLLGIIRLSQALAKLRLADMVDIDDVEEALRLVRVSKESLYQETNKSKEDESPTTKIFTIIKKMLQETGKNTLSYENIVKTVRLRGFTMLQLSNCIQEYSYLNVWHLINEGNTLKFVDDGTMDTDQEDSLVSTPKLAPQTTASANVSAQDSDIDLQDA
With B1, the binding result in the experiment with Mcm4 and in the experiment with Mcm3 was “binds” each time.

B2: Mcm5 (natural protein)
chain: MSFDRPEIYSAPVLQGESPNDDDNTEIIKSFKNFILEFRLDSQFIYRDQLRNNILVKNYSLTVNMEHLIGYNEDIYKKLSDEPSDIIPLFETAITQVAKRISILSRAQSANNNDKDPENTSMDTDSLLLNSLPTFQLILNSNANQIPLRDLDSEHVSKIVRLSGIIISTSVLSSRATYLSIMCRNCRHTTSITINNFNSITGNTVSLPRSCLSTIESESSMANESNIGDESTKKNCGPDPYIIIHESSKFIDQQFLKLQEIPELVPVGEMPRNLTMTCDRYLTNKVIPGTRVTIVGIYSIYNSKNGAGSGRSGGGNGGSGVAIRTPYIKILGIQSDVETSSIWNSVTMFTEEEEEEFLQLSRNPKLYEILTNSIAPSIFGNEDIKKAIVCLLMGGSKKILPDGMRLRGDINVLLLGDPGTAKSQLLKFVEKVSPIAVYTSGKGSSAAGLTASVQRDPMTREFYLEGGAMVLADGGVVCIDEFDKMRDEDRVAIHEAMEQQTISIAKAGITTVLNSRTSVLAAANPIYGRYDDLKSPGDNIDFQTTILSRFDMIFIVKDDHNEERDISIANHVINIHTGNANAMQNQQEENGSEISIEKMKRYITYCRLKCAPRLSPQAAEKLSSNFVTIRKQLLINELESTERSSIPITIRQLEAIIRITESLAKLELSPIAQERHVDEAIRLFQASTMDAASQDPIGGLNQASGTSLSEIRRFEQELKRRLPIGWSTSYQTLRREFVDTHRFSQLALDKALYALEKHETIQLRHQGQNIYRSGV
For B2, the binding result with GINS and in the experiment with Mcm6 was “binds” throughout.

B3: Psf1 (natural protein)
chain: T2 sequence 2
For the molecule B3, the binding result in the experiment with Cdc45 is reported as “binds”.

B4: Psf2 (natural protein)
chain: T2 sequence 3
For B4, in the experiment with Cdc45, the binding result is reported as “binds”.
